From patent US20250090676A1 (SUTRO BIOPHARMA, published 2025)

Tests used:
[1] = target: T1, murine folate receptor alpha (mouse, UniProt P35846 25-232); assay: FACS, CHO-mFOLR1 cells;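 also: flow cytometry binding of serially diluted test antibodies to transfected CHO cells on ice, mean fluorescence intensity, parental CHO cells give background, Kd from one-site specific binding fit with Hill slope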
T1 construct: Expressed on the surface of stably transfected CHO cells; also called mouse FolR1; CHO-mouse FolR1
T1 sequence (P35846 25-232 limits assumed): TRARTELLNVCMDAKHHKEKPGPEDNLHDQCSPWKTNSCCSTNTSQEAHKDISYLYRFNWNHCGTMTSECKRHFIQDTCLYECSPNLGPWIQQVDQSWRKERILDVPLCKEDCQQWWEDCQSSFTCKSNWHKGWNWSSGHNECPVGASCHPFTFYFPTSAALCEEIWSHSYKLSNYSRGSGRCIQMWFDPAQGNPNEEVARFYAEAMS

[2] = target: T2, human folate receptor alpha (hFOLR1) (human, UniProt P15328 25-234); assay: cell-based or functional assay
T2 sequence (P15328 25-234 limits assumed): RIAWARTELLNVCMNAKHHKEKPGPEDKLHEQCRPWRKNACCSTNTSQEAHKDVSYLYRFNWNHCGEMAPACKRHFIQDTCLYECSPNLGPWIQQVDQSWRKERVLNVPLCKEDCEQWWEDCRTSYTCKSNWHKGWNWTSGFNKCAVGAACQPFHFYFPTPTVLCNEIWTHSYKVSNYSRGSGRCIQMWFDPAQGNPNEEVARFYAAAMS

[3] = target: T2, human folate receptor alpha (hFOLR1); assay: FACS, CHO-hFOLR1 cells;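 also: flow cytometry of serially diluted antibodies binding CHO cells stably expressing the receptor, 60 min on ice, mixed with dye-tagged parental CHO as background control, one-site specific fit with Hill slope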
[4] = target: T3, cynomolgus monkey folate receptor alpha (cynomolgus monkey, UniProt P15328 25-234 (human entry)); assay: FACS, CHO-cFOLR1 cells
T3 construct: Expressed on the surface of stably transfected CHO cells; also called cyno FolR1; CHO-cyno FolR1
T3 sequence (P15328 other isoform, or with tags, fused parts or gaps limits assumed): as the sequence (P15328 25-234 limits assumed) above, with I2T, W4R, R37K, Q117R, A146P, H171Y counted along it

Bmax (MFI) [1] [MFI] | Kd [1] [nM] | Bmax (MFI) [3] [MFI] | Kd [3] [nM] | Bmax (MFI) [4] [MFI] | Kd [4] [nM] | binding result [1] | Binder | Igrov, 2° Antibody Cell Killing, Nb-SC239: EC50 [2] [nM] | Igrov, 2° Antibody Cell Killing, Nb-SC239: Span [2] [%] | KB, 2° Antibody Cell Killing, Nb-239: EC50 [2] [nM] | KB, 2° Antibody Cell Killing, Nb-239: Span [2] [%]
9650 | 0.9 | 29200 | 0.61 | 23600 | 0.43 | – | SRP1848-A07 (antibody, V domains shown, HC variant paired with trastuzumab LC, cell-free expressed, HIS- and FLAG-tagged; also called Antibody 5) VH: EVQLVESGGGLVQPGGSLRLSCAASGFNIGYHSIHWVRQAPGKGLEWVGEIFPVDGTTDYADSVKGRFTISADTSKNTAYLHMNSLRAEDTAVYYCARGFWAWRSGYGYYLDYWGQGTLVTVSS VL: not shown | 0.029 | 68 | 0.062 | 95
10200 | 1.2 | 27100 | 0.66 | 14800 | 0.47 | – | SRP1848-A10 (antibody, V domains shown, HC variant paired with trastuzumab LC, cell-free expressed, HIS- and FLAG-tagged; also called Antibody 8) VH: EVQLVESGGGLVQPGGSLRLSCAASGFNIRKYSIHWARQAPGKGLEWVGDIFPIDDITDYADSVKGRFTISADTSKNTAYLQMNSLRAEDTAVYYCARGSWSWPSGHSYYLDYWGQGTLVTVSS VL: not shown | 0.027 | 75 | 0.033 | 96
1420 | 78 | 25200 | 0.46 | 25200 | 0.99 | – | SRP1848-B09 (antibody, V domains shown, HC variant paired with trastuzumab LC, cell-free expressed, HIS- and FLAG-tagged; also called Antibody 15) VH: EVQLVESGGGLVQPGGSLRLSCAAGGFNITNYYIHWVRQAPGKGLEWVGGITPVDGYTDYADRVKGRFTISADTSKNTAYLQMNSLRAEDTAVYYCARGAWSWRSGYGYYMDYWGQGTLVTVSS VL: not shown | 0.027 | 74 | 0.073 | 97
2720 | 6.4 | 26300 | 0.82 | 17200 | 0.41 | – | SRP1848-B03 (antibody, V domains shown, HC variant paired with trastuzumab LC, cell-free expressed, HIS- and FLAG-tagged; also called Antibody 10) VH: EVQLVESGGGLVQPGGSLRLSCAASGFNISMKYIHWVRQAPGKGLEWVGGITPIDGMTDYADSVKGRFTISADTSKNTAYLQMNSLRAEDTAVYYCARGSWSWPSGYSYYLDYWGQGTLVTVSS VL: not shown | 0.028 | 66 | 0.05 | 94
2190 | 17.9 | 27800 | 0.72 | 27800 | 0.65 | – | SRP1848-B04 (antibody, V domains shown, HC variant paired with trastuzumab LC, cell-free expressed, HIS- and FLAG-tagged; also called Antibody 11) VH: EVQLVESGGGLVQPGGSLRLSCAASSFNISNHSIHWVRQAPGKGLEWVGEIYPVDGITDYADSVKGRFTISADTSKNTAYLQMNSLRAEDTAVYYCARGRYSWRAGYSYYLDYWGQGTLVTVSS VL: not shown | 0.018 | 70 | 0.035 | 94
– | – | 24500 | 0.65 | 21900 | 0.64 | no binding | SRP1848-B05 (antibody, V domains shown, HC variant paired with trastuzumab LC, cell-free expressed, HIS- and FLAG-tagged; also called Antibody 12) VH: EVQLVESGGGLVQPGGSLRLSCAASGFNISNYYIHWVRQAPGKGLEWVGGISPIDGYTDYADSMKGRFTISADTSKNTAYLQMSSLRAEDTAVYYCARGSWFWQSGYGYYLDYWGQGTLVTVSS VL: not shown | 0.04 | 72 | 0.065 | 94
– | – | 25100 | 0.67 | 26800 | 1.21 | no binding | SRP1848-B06 (antibody, V domains shown, HC variant paired with trastuzumab LC, cell-free expressed, HIS- and FLAG-tagged; also called Antibody 13) VH: EVQLVESGGGLVQPGGSLRLSCAASGFNISNYYIHWVRQAPGKGLEWVGGITPIDGYTDYADSVKGRFTISADTSKNTAYLQMNSLRAEDTAVYYCARGFWSWPSGYGYYQDYWGQGTLVTVSS VL: not shown | 0.022 | 72 | 0.058 | 95
7990 | 1 | 28900 | 0.61 | 20200 | 0.31 | – | SRP1848-A09 (antibody, V domains shown, HC variant paired with trastuzumab LC, cell-free expressed, HIS- and FLAG-tagged; also called Antibody 7) VH: EVQLVESGGGLVQPGGSLRLSCAASGFNIRKQSIHWVRQAPGKGLEWVGSIFPNDGTTDYADSVKGRFTISADTSKNTAYLQVNSLRAEDTAVYYCARGSWFWRSGYGYFLEYWGQGTLVTVSS VL: not shown | 0.026 | 71 | – | 93
1370 | 26 | 28500 | 0.66 | 25900 | 0.6 | – | SRP1848-C01 (antibody, V domains shown, HC variant paired with trastuzumab LC, cell-free expressed, HIS- and FLAG-tagged; also called Antibody 18) VH: EVQLVESGGGLVQPGGSLRLSCAASGFNIGNSYIHWVRQAPGKGLEWVGGVTPNDGYTDYADSVKGRFTISADTSKNTTYLQMNSLRAEDTAVYYCARGSWFWRAGYGYYLDYWGQGALVTVSS VL: not shown | 0.023 | 68 | – | 90
2460 | 7.3 | 28200 | 0.83 | 21300 | 0.44 | – | SRP1848-B10 (antibody, V domains shown, HC variant paired with trastuzumab LC, cell-free expressed, HIS- and FLAG-tagged; also called Antibody 16) VH: EVQLVESGGGLVQPGGSLRLSCAASGFNTTTKSIHWVRQAPGKGLEWVGEIYPRDGITDYADSVKGRFTISADTSKNTAYLQMNSLRAEDTAVYYCARGGWHWRSGYSYYLDYWGQGTLVTVSS VL: not shown | – | 71 | 0.04 | 97
3310 | 3 | 29100 | 0.51 | 25100 | 0.5 | – | SRP1848-C03 (antibody, V domains shown, HC variant paired with trastuzumab LC, cell-free expressed, HIS- and FLAG-tagged; also called Antibody 19) VH: EVQLVESGGGLVQPGGSLRLSCAASGFNIGVYSIHWVRQAPGKGLEWVGEIYPIDGNTDYADSVKGRFTISADTSKNTAYLQMNSLRAEDTAVYYCARGSWAWRSGYSYYLDYWGQGTLVTVSS VL: not shown | 0.035 | 72 | 0.074 | 93
2510 | 62 | 26300 | 0.44 | 22000 | 0.86 | – | SRP1848-C04 (antibody, V domains shown, HC variant paired with trastuzumab LC, cell-free expressed, HIS- and FLAG-tagged; also called Antibody 20) VH: EVQLVESGGGLVQPGGSLRLSCAASGFNIRHYSIHWVRQAPGKGLEWVGEIYPGPGNTDYADSVKGRFTISADTSKNTAYLQMNSLRAEDTAVYYCARGSLSWRAGYGYYLDYWGQGTLVTVSS VL: not shown | 0.016 | 68 | 0.006 | 94
1630 | 3.9 | 28400 | 0.56 | 22900 | 0.34 | – | SRP1848-B11 (antibody, V domains shown, HC variant paired with trastuzumab LC, cell-free expressed, HIS- and FLAG-tagged; also called Antibody 17) VH: EVQLVESGGGLVQPGGSLRLSCAASGFNIGNNSIHWVRQAPGKGLEWVGDISPIDGFTDYADSVKGRFTISADTSKNTAYLQMNSLRAEDTAVYYCARGSWSWRAGYGYYLDYWGQGTLVTVSS VL: not shown | 0.026 | 74 | 0.058 | 93
3400 | 16.4 | 26600 | 1.06 | 23900 | 0.83 | – | SRP1848-B01 (antibody, V domains shown, HC variant paired with trastuzumab LC, cell-free expressed, HIS- and FLAG-tagged; also called Antibody 9) VH: EVQLVESGGGLVQPGGSLRLSCAASGFNIRNYSIHWVRQAPGKGLEWVGEIYPVDGITDYADSVKGRFTISADTSKNTAYLQMNSLRAEDTAVYYCARGFWSWPSGYSYFLDYWGQGTLVTVSS VL: not shown | 0.031 | 82 | 0.064 | 95
3200 | 2.5 | 28600 | 0.62 | 26200 | 0.45 | – | SRP1848-A08 (antibody, V domains shown, HC variant paired with trastuzumab LC, cell-free expressed, HIS- and FLAG-tagged; also called Antibody 6) VH: EVQLVESGGGLVQPGGSLRLSCAASGSNIRKHSIHWVRQAPGKGLEWVGSIYPNDGTTDYADSVKGRFTISADTSKNTAYLQMNSLRAEDTAVYYCARGSWFWRAGYGYYLDYWGQGTLVTVSS VL: not shown | 0.013 | 65 | 0.039 | 93
– | – | 25600 | 0.66 | 25500 | 1.05 | no binding | SRP1848-B07 (antibody, V domains shown, HC variant paired with trastuzumab LC, cell-free expressed, HIS- and FLAG-tagged; also called Antibody 14) VH: EVQLVESGGGLVQPGGSLRLSCAASGFNISRFYIHWVRQAPGKGLEWVGGISPYDGFTDYADSVKGRFTISADTSKNTAYLQMNSLRAEDTAVYYCARGSWSWPAGYGYYQDYWGQGTLVTVSS VL: not shown | 0.038 | 73 | 0.079 | 96
